Source: patent publication US20130260436A1, “Methods of Identifying and Characterizing Natural Product Gene Clusters” (Victoria LInk Limited, priority 2010, published 2013)
Values joined by “and” are separate entries in the source; they are usually repeats but may differ in a detail not shown here. Equal entries are not always repeated.

B1: slEntF: mBpsA with T-domain from entF gene of E. coli W3110; SEQ ID NO: 11 (protein)
chain: MTLQETSVLEPTLQGTTTLPGLLAQRVAEHPEAIAVAYRDDKLTFRELASRSAALADYLEHLGVSADDCVGLFVEPSIDLMVGAWGILNAGAAYLPLSPEYPEDRLRYMIENSETKIILAQQRLVSRLRELAPKDVTIVTLRESEAFVRPEGTEAPAARSARPDTLAYVIYTSGSTGKPKGVMIEHRSIVNQLGWLRETYAIDRSKVILQKTPMSFDAAQWEILSPANGATVVMGAPGVYADPEGLIETIVKHNVTTLQCVPTLLQGLIDTEKFPECVSLQQIFSGGEALSRLLAIQTTQEMPGRALINVYGPTETTINSSSFPVDPADLDEGPQSISIGSPVHGTTYHILDKETLKPVGVGEIGELYIGGIQLARGYLHRDDLTAERFLEIELEEGAEPVRLYKTGDLGQWNNDGTVQFAGRADNQVKLRGYRVELDEISLAIENHDWVRNAAVIVKNDGRTGFQNLIACIELSEKEAALMDQGNHGSHHASKKSKLQVKAQLSNPGLRDDAELAARPAFDLEGAEPTPEQRARVFARKTYRFYEGGAVTQADLLGLLGATVTAGYSRKAADLAPAELGQILRWFGQYISEERLLPKYGYASPGALYATQMYFELEGVGGLKPGYYYYQPVRHQLVLISEREATGKATAQIHFIGKKSGIEPVYKNNILEVLEIETGHMVGLFEQILPAYGLDIHDRAYEPAVKDLLDVADEDYYLGTFELVPHAGARDDQAEVYVQTHGGKVAGLPEGQYRYENGELTRFSDDIVLKKHVIAINQSVYQAASFGISVYSRAEEEWLKYITLGKKLQHLMMNGLNLGFMSSGYSSKTGNPLPASRRMDAVLGANGVDSAPMYFFVGGRISDEQIGHEGMREDSVHMRGPAELIRDDLVSFLPDYMIPNRVVVFDRLPLSANGKIDVKALAASDQVNAELVERPGRAPKAGSETIIAAAFSSLLGCDVQDADADFFALGGHSLLAMKLAAQLSRQVARQVTPGQVMVASTVAKLATIIDREVAQESSRFVRLHAETGKARPVICWPGLGGYPMNLRSLAGEIGLGRSFYGVQSYGINEGETPYETITEMAKKDIEALKEIQPAGPYTLWGYSFGARVAFETAYQLEQAGEKVDNLFLIAPGSPKVRAENGKVWGREASFANRGYTTILFSVFTGTISGPDLDRCLETVTDEASFAEFISELKGIDVDLARRIISVVGQTYEFEYSFHELAERTLQAPISIFKAVGDDYSFLENSSGYSAEPPTVIDLDADHYSLLREDIGELVKHIRYLLGE
B2: slPvdD1: mBpsA with T-domain from first module of pvdD of P. aeruginosa PAO1; SEQ ID NO: 5 (protein)
chain: MTLQETSVLEPTLQGTTTLPGLLAQRVAEHPEAIAVAYRDDKLTFRELASRSAALADYLEHLGVSADDCVGLFVEPSIDLMVGAWGILNAGAAYLPLSPEYPEDRLRYMIENSETKIILAQQRLVSRLRELAPKDVTIVTLRESEAFVRPEGTEAPAARSARPDTLAYVIYTSGSTGKPKGVMIEHRSIVNQLGWLRETYAIDRSKVILQKTPMSFDAAQWEILSPANGATVVMGAPGVYADPEGLIETIVKHNVTTLQCVPTLLQGLIDTEKFPECVSLQQIFSGGEALSRLLAIQTTQEMPGRALINVYGPTETTINSSSFPVDPADLDEGPQSISIGSPVHGTTYHILDKETLKPVGVGEIGELYIGGIQLARGYLHRDDLTAERFLEIELEEGAEPVRLYKTGDLGQWNNDGTVQFAGRADNQVKLRGYRVELDEISLAIENHDWVRNAAVIVKNDGRTGFQNLIACIELSEKEAALMDQGNHGSHHASKKSKLQVKAQLSNPGLRDDAELAARPAFDLEGAEPTPEQRARVFARKTYRFYEGGAVTQADLLGLLGATVTAGYSRKAADLAPAELGQILRWFGQYISEERLLPKYGYASPGALYATQMYFELEGVGGLKPGYYYYQPVRHQLVLISEREATGKATAQIHFIGKKSGIEPVYKNNILEVLEIETGHMVGLFEQILPAYGLDIHDRAYEPAVKDLLDVADEDYYLGTFELVPHAGARDDQAEVYVQTHGGKVAGLPEGQYRYENGELTRFSDDIVLKKHVIAINQSVYQAASFGISVYSRAEEEWLKYITLGKKLQHLMMNGLNLGFMSSGYSSKTGNPLPASRRMDAVLGANGVDSAPMYFFVGGRISDEQIGHEGMREDSVHMRGPAELIRDDLVSFLPDYMIPNRVVVFDRLPLSANGKIDVKALAASDQVNAELVERPYRAPGSELEQRIAAIWSEILGVERVGLDDNFFELGGHSLLATRVISRVRQEQQLDASLKALFERPVLEAFAQGLEREVAQESSRFVRLHAETGKARPVICWPGLGGYPMNLRSLAGEIGLGRSFYGVQSYGINEGETPYETITEMAKKDIEALKEIQPAGPYTLWGYSFGARVAFETAYQLEQAGEKVDNLFLIAPGSPKVRAENGKVWGREASFANRGYTTILFSVFTGTISGPDLDRCLETVTDEASFAEFISELKGIDVDLARRIISVVGQTYEFEYSFHELAERTLQAPISIFKAVGDDYSFLENSSGYSAEPPTVIDLDADHYSLLREDIGELVKHIRYLLGE

How the values were obtained:
[1] = tested on: BpsA, single module non-ribosomal peptide synthetase of Streptomyces lavendulae ATCC 11924, purified recombinant 6His-tagged protein (apo form)
[2] = molecular target: PP1183, putative phosphopantetheinyl transferase of Pseudomonas putida KT2440 (Pseudomonas putida KT2440); assay: cell-based or functional assay
[3] = molecular target: PcpS, phosphopantetheinyl transferase of Pseudomonas aeruginosa PAO1 (Pseudomonas aeruginosa PAO1); assay: cell-based or functional assay
[4] = molecular target: Sfp, phosphopantetheinyl transferase of Bacillus subtilis subsp. spizizenii ATCC6633 (Bacillus subtilis subsp. spizizenii ATCC6633); assay: cell-based or functional assay
[5] = tested on: E. coli harbouring an activating PPTase; assay: In vivo pigment synthesis activity of BpsA derivatives relative to wild type BpsA; assay type: cell-based; conditions: for Relative activity (in vivo pigment synthesis relative to wild type BpsA): E. coli, supernatant A590
Description: A detailed description of the method used for generation of mBpsA derivatives is given in Section 4.15. Briefly, a plasmid containing bpsA lacking its native T-domain (pBPSA3) was created. This plasmid contained restriction enzyme sites which were subsequently used to introduce foreign T-domain sequence. Foreign T-domains were then amplified from the chromosomal DNA of their host organisms and introduced into pBPSA3 to generate mBpsA derivatives which contained T-domains from foreign NRPS proteins in place of the native T-domain. Only the final embodiment of the T-domain swapping platform is described in this application. This embodiment is the result of rational in-silico design as well as trial and error, which are not described. Using this final platform, five different mBpsA derivatives were generated and subsequently assessed for in vivo pigment synthesis capacity in E. coli harbouring an activating PPTase. Table 3.1 gives a summary of the mBpsA derivatives generated as well as their in vivo pigment synthesis activities relative to wild type BpsA. The derivation of in vivo pigment synthesis activity was as described in 4.10.
For second tier screening, up to 45 improved clones, along with a positive and negative control, were stored as duplicate glycerol stocks in a 96wp. From this plate duplicate overnight cultures were established in LB supplemented with 0.4% glucose and appropriate antibiotics. […] Overnight cultures were grown for 16-20 h (37° C. 200 rpm) before transfer of 20 μl of each culture into a fresh well containing 130 μL LB supplemented with 115 mM L-Gln, 0.6 mM IPTG and appropriate antibiotics. Assay plates set up in this fashion contained duplicate cultures for each clone from two separate overnights. Assay plates were then wrapped in foil and incubated for 6-24 h (18° C., 200 rpm), depending on activity of improved clones. After incubation cells were collected at the corner of each well by centrifugation and OD 590 values determined using a microplate reader. Assays were repeated at least twice before determination of clones for sequence analysis.
In vivo pigment synthesis efficiencies for recombinant BpsA proteins described in Section 3.2 were derived from three separate assays. This was necessary due to the fact that pigment synthesis of wild type BpsA saturate before activity of mBpsA derivatives was detectable. Replicate cultures for determination of in vivo pigment synthesis activity were established from overnight starter cultures in a 96 wp as described in Section 4.9.3 The values presented are derived as follows: quadruplicate values for WT BpsA and oBpsA (mutant with reduced activity) were determined after 3 h, at which point pigment production was not saturated for WT. A separate quadruplicate assay was then run to obtain a value for slEntF by comparison to oBpsA after 12 h. Quadruplicate values for slPsT and slPvdD2 were then obtained in a separate assay by comparison to slEntF after 12 h.

| Molecule | IC50 (carrier protein competition with BpsA for limiting CoA) [2] [nM] | kcat/Km (estimate derived from IC50) (Min^-1 · µM^-1) [2] | IC50 (carrier protein competition with BpsA for limiting CoA) [3] [nM] | kcat/Km (estimate derived from IC50) (Min^-1 · µM^-1) [3] | IC50 (carrier protein competition with BpsA for limiting CoA) [4] [nM] | kcat/Km (estimate derived from IC50) (Min^-1 · µM^-1) [4] | Relative activity (in vivo pigment synthesis relative to wild type BpsA) [5] | also measured |
| --- | --- | --- | --- | --- | --- | --- | --- | --- |
| PcpS, phosphopantetheinyl transferase of Pseudomonas aeruginosa PAO1 |  |  |  |  |  |  |  | Km (BpsA as variable substrate), BpsA coupled indigoidine assay [1]: 6.5 µM; kcat (BpsA as variable substrate), BpsA coupled indigoidine assay [1]: 0.687 s⁻¹; kcat/Km (BpsA as variable substrate), BpsA coupled indigoidine assay [1]: 107000 M⁻¹ s⁻¹ |
| The aryl carrier protein from Nostoc punctiforme protein HetM (npArCP), purified recombinant His6 tagged | 6000 | 0.19 | 8460 | 0.65 | 140 | 3.51 |  |  |
| The peptide carrier protein of the Microcysitis aeruginosa NRPS/PKS MycG (mPCP), purified recombinant His6 tagged | 180 | 6.3 | 990 | 5.55 | 150 | 3.33 |  |  |
| The peptide carrier protein of the first module of the Pseudomonas aeruginosa NRPS PvdD (pPCP), puri | 280 | 4.1 | 560 | 9.84 | 450 | 1.11 |  |  |
| slDhbF: mBpsA with T-domain from first module of dhbF of B. subtilis; SEQ ID NO: 13 |  |  |  |  |  |  | 0% |  |
| B1 |  |  |  |  |  |  | 5.14% and 5.14 +/− 0.28% |  |
| B2 |  |  |  |  |  |  | 0% | In vivo pigment synthesis capacity (qualitative) ([5]; E. coli with activating PPTase, pigment development agar or broth): completely inactive enzyme |
